This is an account of results in patent publication US20070111281A1.

The target in experiment [1] is shFcγRIIIa-H6 (soluble human FcγRIIIa with hexahistidine tag, Example 3) (human) (UniProt P08637). The experiment in a line: SPR (Biacore1000), receptor coupled to CM5 chip, IgG in flow, steady state.
In experiment [2] the target is shFcγRIIIa-Q162-H6 (soluble human FcγRIIIa lacking glycosylation at position 162, hexahistidine tag, Example 3) (human) (UniProt P08637). Described as above.

“IgG mutant 9 H268D, non-GE glycoform (antibody)”: the Kd came out at 0.124 µM in experiment [1] and 0.0873 µM in experiment [2].
As to “IgG mutant 20 S239W, non-GE glycoform (antibody)”, the dissociation constant (Kd) in experiment [1] came out at 0.688 µM; in experiment [2], 0.372 µM.
As to “IgG mutant 22 F243E, non-GE glycoform (antibody)”, the dissociation constant Kd in experiment [1] came to 0.887 µM; in experiment [2] it was 0.428 µM.
For “IgG mutant 30 H268E, non-GE glycoform (antibody)”, in that order: 0.189 µM and 0.152 µM.
Taken in the same sequence, the figures for “IgG mutant 43 S239D, non-GE glycoform (antibody)” were 0.0857 µM and 0.122 µM.
For “IgG mutant 85 F243H, non-GE glycoform (antibody)”, in that order: 0.542 µM and 0.382 µM.
As for “IgG mutant 88 T260H, non-GE glycoform (antibody)”, the Kd is 0.277 µM in experiment [1] and 0.29 µM in experiment [2].
Taken in the same sequence, the figures for “IgG mutant 98 S239E, non-GE glycoform (antibody)” were 0.155 µM and 0.17 µM.
Taken in the same sequence, the figures for “control antibody (humanized IgG1), non-GE glycoform” were 0.246 µM and 0.214 µM.
